In a protein production outcome set (Wang et al. 2014):

Assay: label from the status in PepcDB records
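Also: failed if final PepcDB status was selected cloned or expressed and not failed if soluble or beyond.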

Sequence | protein production
MTDQVFGKVSKVVCVGAGYVGGPTCAMIAHKCPHITVTVVDMNTAKIAEWNSDKLPIYEPGLDEIVFAARGRNLFFSSDIPKAIAEADLIFISVNTPTKMYGRGKGMAPDLKYVESVSRTIAQYAGGPKIVVEKSTVPVKAAESIGCILREAQKNNENLKFQVLSNPEFLAEGTAMKDLANPDRVLIGGESSPEGLQAVAELVRIYENWVPRNRIITTNTWSSELSKLVANAFLAQRISSINSISAVCEATGAEISEVAHAVGYDTRIGSKFLQASVGFGGSCFQKDVLSLVYLCESLNLPQVADYWQGVININNWQRRRFADKIIAELFNTVTDKKIAIFGFAFKKNTGDTRESSAIHVIKHLMEEHAKLSVYDPKVQKSQMLNDLASVTSAQDVERLITVESDPYAAARGAHAIVVLTEWDEFVELNYSQIHNDMQHPAAIFDGRLILDQKALREIGFRTFAIGTSPDQAYNLFGTAGY | not failed
MTDTASKYAVKLKTNFEDPKWVNRHKFMFNFLDINGNGKITLDEIVSKASDDICAKLGATPAQTQRHQEAVEAFFKKIGLDYGKEVEFPAFVNGWKELAKHDLKLWSQNKKSLIRNWGEAVFDIFDKDGSGSISLDEWKTYGGISGICPSDEDAEKTFKHCDLDNSGKLDVDEMTRQHLGFWYTLDPNADGLYGNFVP | not failed
MTDWQQALDRHVGVGVRTTRDLIRLIQPEDWDKRPISGKRSVYEVAVHLAVLLEADLRIATGATADEMAQFYAVPVLPEQLVDRLDQSWQYYQDRLMADFSTETTYWGVTDSTTGWLLEAAVHLYHHRSQLLDYLNLLGYDIKLDLFE | not failed
MTDYTKLQQVRQWTQDNHVDVTYISNFHTISYLTGFESNPYERTLALFVFADAEPFLFAPALEVEAIKEMGWPYKVFGYLDHENPYALIADHIHAQLTDPKVWALETGNLTLDRFTALKQQFPAAHFDKDLSPYIQQLRLVKTADELEKLNIAGKWADFAFEQGFAAVKAGRTEQQIAAELQYALMKKGIMEMSFDTLVQAGEHAANPHGATNETQVKPNELVLFDLGVMYEGYASDASRTIAYGQPSAKQKEIFDVCLEANLTAQAAIKPGMAAEDVDKIARDIITKAGYGEYFIHRLGHGIGQTDHEFPSIMAGNHMPLVEGMCFSVEPGIYIPGVAGVRIEDCGVVTKEGFKPFTHTPKELKVLDL | failed
MTEEKKRGFRIPSSYTVLFIIIAIMAVLTWFIPAGAYETAKGGGVISGTYKTVASNPQGFFDILMAPVRGMLGVEGTDGAIQVSFFILMVGGFLGVVNKTGALDTGIASVVRKNKGREKMLIAILIPLFALGGTTYGMGEETMAFYPLLIPVMIAVGFDSIVAVAIILIGSQIGCLASTINPFATGVAADAAGVSIADGMIWRVIQWVILVGMSIWFVYNYASKIEEDPSKSLVADKEEEHKELFQLQNSGEDLNKRQRNVLTIFTLTFVIMILSLIPWEDFGIKFFTNINTWLTTMPILGGVIGKTMGAFGTWYFPEITMLFIMMGVLVAIVYRMSEEDFFSSFLTGAGEFLGVAMICAIARGIQVIMNGGMITATILHLGETSLSGLSSQVFVILAYIFYLPMSFLIPSTSGLAGATMGIMAPLGQFSNVPAHLVITAFQSASGILNMISPTSAIVMGALALGRVDLGTWWKFIGKFIVMVMLVSVLLLVVATFF | not failed
MTEFPKILMVLGAVIFGIGLFMQVIGRLPGDIFVKKGNVTFFFPVVTCIVISIILSVVFSFFGRMK | failed
MTEHCGAIKYFKSNFRRKRCLDFVCLTNLMFGLGSTPHGQVERADENNTLDLNNLPDDPSRDIFPFFEEGGFREKQTKDGKEYECRFCSLKFFKSQALGGHMNRHRQERETESLNKARELVLRNDSFPPHQGPPSFSYHQGDVHIGDLTQFKPMMYPPRHFSLPGSSSILQLQPPYLYPPLSSPFPQHNTNIGNNGTRHQTLTNSVCGGRALPDSSYTFIGAPVANGSRVAPHLPPHHGL | failed
MTEHSSDYYQRLVDESALEEFLTREIGPAETFDVARHEQGHSNETLFVTWGDRELVVRRPPPGQTAETAHDVLREYRVIDALQDTAVPVPPTVTACDDQTIIGSDFYVMARVEGTVIRDDEPARFGSDDARAAVGTELVDTLAAIHEVDPTAVGLSDLGRADGYAKRQVARWGKQLAWAFERTAESRTIPELERVGSWLQDECPDDHPKTLVHGDYKLDNVMFGPGDDPELAAVFDWEMATLGDPRADLGWLLSYWRDAKDPEPEIPDLAMEFIEAPGYLTRTDLVDRWEAQTGLTFEHERFYRTLAVYKLAALGEMFYRRYLEGNADDPFYPLMEDRVPALANRAVRIIEGDEPL | failed
MTEKEKMLAEKWYDANFDQYLINERARAKDICFELNHTRPSATNKRKELIDQLFQTTTDNVSISIPFDTDYGWNVKLGKNVYVNTNCYFMDGGQITIGDNVFIGPNCGFYTATHPLNFHHRNEGFEKAGPIHIGSNTWFGGHVAVLPGVTIGEGSVIGAGSVVTKDIPPHSLAVGNPCKVVRKIDNDLPSETLNDETIK | not failed
MTEMHRLLQRQLKKFGFTADGLPQNLESWTQFIAHINKTYYENDQDRYLLERSIDISSKEMRDINAKLEYAQDIAQIGYWHYDADTDTATWSKGLFKILGLPPSNVALNYSSFLDLVHPNDKAGLKNVVEKALKEKEDYDYELRVRNGDNDYKWYRTIARANPHKNEISGVLMDISKRKIIEEQVHELNNKLVSTARLAGMSEVATSILHNVGNILNSVNVSAIILKKNISKIHYKKLSAIKTMLDENINQLSEYLLQNPKGKLILPYLDALSKTLHEEYEENMKESNSLETNINHIKEIIAMQQSLSGLSNLTEKISIHDVILNAVKSVILDKHQIDVRIEIEPDINEFITDKSKLFQILTNLLANAKDSVLLHEANDSRKVVISIGRTEKNHIMIKINDNGIGIQKDNLDRIFSFGFTTKKNGHGFGLHCSAIYARDLGGTLYAESNGNGKGAQFVLDLPINPKTLSTR | failed
MTERKVSWLELFFDLIFVTAVASTTHLLLSVDNHPDKTAAYFGEYLLMVTPMFWAWVGQTMFFNRFGEKIKWPELYMLSQMFFLILMTASFDLTFSNTYYTFLIGYLGIRFITVIQYFVISKQLTGNAQKVALLLGSVFLLGVLTTATSVFFEGFARYLVMYLGIAVDIILPLFLAKTLRKVPVDFPHLAERFGLFVIITFGESIVAITTILVGHTLDLYTICYTLLGFLIICTLWASYFYSFEKIVDHHKVTHGQFLIYGHFFIIVSVMLLAVNLHLLFEGHLQRDVLLLLLFSSVAVFFISKQFVFAAHKKAEVSFSFWKDALLLLLLVGLFFVNLYINLPLFVSFVSIWICALVDLGLQFGTSRSVRM | failed
MTERLLVGVIVGSHGVRGLVRVKSFTQDEMALCDYGPLSDETGTRRFAVEVRNQAKGVVICQIPGVSDRTAADALKGTRLFLDRAALPADALEEDEYYHADLIGLPVDLVDGGRLGVVHSVHDFGAGDMLEVTLAQGRRSVLLPFTKAVVPLVDVKAGRLVADPPLGLLDDTRPPAGVEGEVEEDPGVGIDEDGDGKGGASLEHHHHHH | not failed
MTESTGSTSQEQQVRGETMPDWEKRFRAPRVSLPDWAEDAPHRALFVSNATGTYELYAWDRTTGEQRQVTDRPNGTTDGVLSPDGEWIWWFDDTDGDEFGIWRRQRFTGGGTADGPDEPAADGLEPSYPAGLAIGRDGGTAVVGRSTDEDGSTVHVVRAGQEPVEIYRHRESAGVGDLSHDGSLIAVEHTEHGDAMHSALRVLRLDGSTVAELDDTKGGSVELGLEVLGFAPVDGDTRLLIGHQRRGRWEPLVWDVASGEETDLALELPGDVGAEWYPDGSALLVAHSFEARSELFRYDLASRELVRVPTPAGTVSGATARPDGSVEYLWSSAAEPSVVRSTSGGIVLDPPGMKSPGSVPVEDVWVEGPGGRVHALVQRPAGASGPLPTVFDIHGGPTWHDSDSFAAGPAAWLDHGYAVVRVNYRGSTGYGREWTDALKHRVGLIELEDIAAVREWAVSSGLADPDRLILTGGSWGGYLTLLGLGTQPDAWTIGIAAVPVADYVTAYHDEMEALKAMDRTLLGGTPEEVPERFEASSPLTYVDAVKAPVYISAGVNDPRCPIRQVENYVERLTARDAVHEVYRYDAGHGSLVVDERIKQVRLELEFAERHLGR | failed
MTETRIKQLLGQMSLEEKVSILSGEDFWSVAAVERLGIGKLRVSDGPNGARGGGSLVGGVKSASFPVGIAIGSTWNVELVREIGAALADEVKSKGAHMLLAPTVNIHRSVTNGRNFECYSEDPILSAELAVSYITGLQEQGIGATIKHFVGNESEIERTTISSEVDERALREIYLIPFEWAVRKAHTWGIMSSYNRLNGTFTSEHDWLLGHVLRDEWHYDGIVMSDWFGSHSTAETVNAGLDLEMPGPTRDRGQKLVDAVNAGEVSLETLDRRVLAMLRLMERVGSLDDHRPHVEKAEDRPEHRALIRRAGAEAAVLLKNDGVLPLEGSGKIAVIGPNAKTAQIMGGGSAQLNAHYRISPWQGLVAALGEERLTYAKGCTNDRFEPLLRGVLDVDYFDNLTLSGEPVHRGTIEDAQTFWIGQVAEGKVDALHFSARVRGRFTPEASGEHNVGIYAAGFAKVYIDGKLVADAWTNWTKGRTFFEEGCDEVVGTITLEAGHAYDVTIEFCTKDFATLGLAAFACGIGHPLGDDAIAAAVEAARTAETALLFIGRNGEWDTEGSDLPAIVLPGRQNELVEAVAAVNPRTVVVLQSGGPVEMPWAGQVAAVVSAWYPGQEAGNAIADVLTGLAEPGGRLPQTFPVRWADNPAHSQDREVYPGLEGKVRYEESIFVGYRHYDKLGLTPLYPFGFGLGYTSFALSDLSVDASNFETEGTVSVTLNVTNTGDRVGSTVVQLYVSDTLSSAPRPSKELKAFAKVKLEAGASRGVTLSLDARAFAFFDAGSKSWLVEPGDFILRVGQSSADLPLTARITRTGAMHLPL | failed
MTEYNIALVGFGGVNRALAQLIAERNQAWKKQLGFSLKIVGISDLFLGSIVASQGLDAGLLSKLPATKGALAQLPGGQVEALNEQVIKDSGADIIAEATFTNPVDGEPASTFCRWALEQGKHVVTTNKGPIALHSAELKALAQRNLAAFEYEGAVMSGTPVIRMAKQSLAGSGLLGFEGILNGTSNFVLTRMEAGLGFAEAVAEAQALGYAEADPSADVEGFDVRLKVVILANELLDAQLTVSDVSCRGISGLTVKDLEQARAEGARWKLIGSAQRLADGSLQASVEPRLLPLAHPLAGIGGAINAVSFNTELLGAVTVSGPGAGRIETAFALLSDIIHIHQSRLAR | failed
MTFEDPSFWAALLTAATTAGAITILVALVRRNQAKGPDRRAREDAEIFLGLSDGLIVLDDGGRVSALNRAAQRMTGQEGEAAVGKSARRLLPGLESVLEGKDRLASSLGLWCRLPATGREEALASTLGALLSETTGPAGTRTVLVLRDISEQIRLTEVDDWLRVIDGHLLAGTSLGDLANDLCERVARAFGLPLLWIGVPRPEGLLVVGKGGSEAARLSAYPEGRGDEGTQGVAGRTLRSGRAQSDDAGEGWAAPTWAPGVPLGRAYCVGLRARGEVVAVLCLRGHGEAPSPALSRALEALGPRLGEAIVYERGQSLMRLQSAAIAAAANAIVITDGEGRVEWVNEAYHLLSGYERDQIIGTLPAVLAGPSAANPTAIEAWPTLRAGQVWRGEIHETHRDGRTYIVDKTITPIVDASGRLSHLVAVDEDVTARKKAEERIRYLSNYDTLTRLPNRVLFRDRLYQAVVQARRGHGGLAVMFIDLDQFSLVNDTLGHAAGDHLLMTIASRINAAAEEADTVARVGGDEFALIQTALTSADSAASLARRLIDVIRTPVDLGGREVVIGANVGIAIYPQDGTDPDNLMKNADMAMYRAVKSGDDSCCFFSNEMNAEAAVRLSLEEDLRRALDSGDQLFLHYQLQFCIESGRPVGAEALARWTHPTLGAIPPTRFIPVAEDSGLILALGDWVLGTALAEYARWRAAGCGRLTIAVNMSAVQFRQKGLVERVTDLLAQHGVPPEDLELELTESMLMQDADQAVAQLTALSQAGIRLSIDDFGTGYSSLGYLKLFRVDKLKVDQSFVRDVTEDGNDAVIARAIINLGHSLGLEVIAEGVETPEQMAYLRREGCDVVQGYLMAYPEPGETVARRLLALDALSAAPAAVVMSRSD | failed
MTFHKIFFVISLMLVVSLVNAVDYSVVDNSGDSTGGRRFRGEIGGISYGTQTLRSATDFVWRLFQQTNPSDRKSVTKITLFMENGDGVAYNSGNEIHFNVGYLAGVYRS | not failed
